Measured values reported in the DeepSol protein solubility set.

Experiment: soluble on expression in E. coli; label from the status in PepcDB or PDB records

Row | Sequence | soluble on expression in E. coli
1 | MGSDKIHHHHHHNGNGDKSLENWIWDAACSIRGAQEAAKYKDFILPLIFTKRLCDVFDDELNRIAEKVGSRAKAFKLVAMDHNLVRFYLPLQPQNPDDPVWSVIRKLSDKIGEKLTDYLREIAKANPLLNGIINRVDFNATTHGQRDLDDDRLSNLIEKISEKRLGLKDVEPDIIGRSYEYLIRKFAEGSGQSAGEFYTPKEVGLIMAKIMQPEPGMTIYDPCCGSAGLLIKCQLVLQESQGATEKFAPLQLYGQEYTPNTWAMANMNMIIHDMEGKIEIGDTFRHPKFMQAGKLAQFERVVANPMWNQKWFTEKDYDGDELGRFPKGAGYPGSSADWGWVQHILASLDKTGKAAIVLDTGAASRGSGNANKNKEKEVRKWFVEQDLIEGVIYLPQNLFYNTSAPGILLFLNRAKPKERQGKLFFINASLVFAKGDPKNYIPDEEIERIANTFLTWREEEKFSLIVYKDKIAHNDYNISPSRYIHITEEEDFRPIAEILEELEVLEKEAAETNK | not soluble
2 | METACERLHVAQETQMQLIEKSSDKLQDHILYWTAVRTENTLLYAARKKGVTVLGHCRVPHSVVCQERAKQAIEMQLSLQELSKTEFGDEPWSLLDTSWDRYMSEPKRCFKKGARVVEVEFDGNASNTNWYTVYSNLYMRTEDGWQLAKAGADGTGLYYCTMAGAGRIYYSAFGDEAARFSTTGHYSVRDQDRVYAGVSSTSSDFRDRP | soluble
3 | MRILGEKVRQFRKRKGMSQKELADGICTQATISLIEKKSKIPSMKIMMKICNRLGIRLSEVIIENDDQLYRTFKKIDTLIRHTQLEEAQDVFQHIRPKQLRSNTDKKQYYYYEGYLQLVLNDNADEAIFNFGMLLNQFVKSSHDMFAILATLGTGLAYERKQAYDKAEIFVKQAVATLHTMDAQAMPMGDDDYLQNEILIYASAAQLYAKINFPEEALELIDLALKKAQESQSLYLLDRLYAQKAANEVVLNNVQSAHDHYYVAYALSLVTHNSSLTEKITKEMAEYHIAPLQVANDA | not soluble
4 | MGSSHHHHHHSSGLVPRGSHMRIGMVCPYSFDVPGGVQSHVLQLAEVLRDAGHEVSVLAPASPHVKLPDYVVSGGKAVPIPYNGSVARLRFGPATHRKVKKWIAEGDFDVLHIHEPNAPSLSMLALQAAEGPIVATFHTSTTKSLTLSVFQGILRPYHEKIIGRIAVSDLARRWQMEALGSDAVEIPNGVDVASFADAPLLDGYPREGRTVLFLGRYDEPRKGMAVLLAALPKLVARFPDVEILIVGRGDEDELREQAGDLAGHLRFLGQVDDATKASAMRSADVYCAPHLGGESFGIVLVEAMAAGTAVVASDLDAFRRVLADGDAGRLVPVDDADGMAAALIGILEDDQLRAGYVARASERVHRYDWSVVSAQIMRVYETVSGAGIKVQVSGAANRDETAGESV | soluble
5 | MSLKKATLKDIAEYFGVSISTVSRALSGKPGVSSELREKILEKAREIGYTPNLMALGLKKGNTRTVGVLIPELSANFFADIVSSIEKSLFHLGYRLILCSTDDDPVKEREHLQLLLDQKVEGILSAPVNVKENKDIYNSIINHFKIPVVFFDRLVEGVDSDFVISDNREGMEILVNYLVKHGHKKIGLIHPLRGSFTGEERLKGFLLFKDSIEIREEWIRDGRSSEQGGYESFLRIMTSQERPTAIVIGNNLMTLGVLKAAKELNIKIPEDISLVSFDDAYWNEIFDPPITCVRQDPQQIGLIAATILLDRMKNRKKPSPRMQVVLKVKFVERSSVRTIKTLKDEGHHHHHH | soluble
6 | MKSEPDTFSIDDLERVGTEPWNGVRNYQARNFMRDGMHVGDGVFFYHSNCKVPGIVGIAKVASAAYPDDTQFDPSSDYHDPKSTREDPRWMLVDVAFERKLTRTISLDEIKQQADALGEGFPLIARGNRLSILPVTAAQWKVLLAMELEHHHHHH | not soluble
7 | MLPLSSVELTDIKTDDLDIKWDNVQQFKLGDGSYADVFHVFYKGHDAVLKRSIKEYTDKERENIRREARVVAALNNCENVVRIYGICETLPFRGMIMEYCAGPNLSELVFQLDECKVKFETLRIFKWCHDLTRTLCELNVTYYHGDVKAKNVLVKERPCCCVEGIYENVKIRNTTYSLCTICNGVHLEHLSLKICDFGMSYEHKDKRLYNGGTREFSAPETIRGIYTEKSEVYSFGHLMLVLVIGGPTEDDCAVGQRAFLKMYNNKKYDMSGCKSNSICETIEWCLNNTQESRPTFKQLLSKLNSRHTHYLSLRGTDTRRLEANNEREEFLDHYRIPRKISVHRRTTTTSTCISLSETSGSNQDISVTSAAYLGGPIVNQMFIADTPLASPSASRKFRNDGFEKTNYVENQLYTGDETRKPFLTGGISHPGYSVMRKNSVWKFFVQARNSIRSKITKLVRKRK | not soluble
8 | MAGGGAGDPGLGAAAAPAPETREHLFKVLVIGELGVGKTSIIKRYVHQLFSQHYRATIGVDFALKVLNWDSRTLVRLQLWDIAGQERFGNMTRVYYKEAVGAFVVFDISRSSTFEAVLKWKSDLDSKVHLPNGSPIPAVLLANKCDQNKDSSQSPSQVDQFCKEHGFAGWFETSAKDNINIEEAARFLVEKILVNHQSFPNEENDVDKIKLDQETLRAENKSQCCLEHHHHHH | not soluble
9 | MGSDKIHHHHHHVTPFAQTAAQTDHYDVIVIGAGPSGSVAASLLHQQGKRVLVLEKQHFPRFSIGESLLPCCMQVIAEANMLDAVNQAGYQFKNGAAFNANGRSTYFDFTDKFTPGPGTTFQVERGDFDKLLADTAASQGVEIRYGQRVDAVDLSHNPRLTISDEQGASYELSADYLLDASGFGRVLPRLLDLERPSNLPSRTAIFTHIQDNIDSVDMGDYHFDRNKILISVHPDNRDIWYWLIPFSNGRCSLGVVGEPHLLGQDADLEATNLEATLIRLVREEPRLKQLLSRAEIIRKPAKLAGYSANVSTLASDKFALLGNAGEFLDPVFSSGVTIAMQSASIAAKCVVKQLNGESVDWQTEYAQPLMRGVDTFRTYVQAWYDGRFQDVIFYQDPNPKIKQMICSILAGYAWDESNPFVAESERRLNMVVELCR | not soluble
10 | MGSDKIHHHHHHMPNMGIEKLYVSQQLTDSAAGMTFTKPQYYKYVQELSLKPKVNSASAYAENRKVDQDTQFDSCDVSINLFQMTSSQRAFMLGQSLAGGGGAIGALNDKAPWITLLYKAPIKVDDTIYYRYGVIYKTQFQPPDDDYKTTEGKPDFSQVPKISGSAQPTEWSFKDGKLEKHPWEWHVDTCDPNCPENIDDTWFNSVSIPSLVTYGSLSLSASSPKDGATGISLDTKPSLTFNNPIMNATSILLYNVSDGATVNTTTSSDSSGKIITITPSTNLVANKNYVLVVQDVTDLYGQTLDTQLIRFTTATAAS | not soluble
11 | MNDTPDDTFVSGYLLYLLAASSEEASAQFHDHIRAQGLRVPEWRVLACLVDNDAMMITRLAKLSLMEQSRMTRIVDQMDARGLVTRVADAKDKRRVRVRLTDDGRALAESLVASARAHETRLLSALADTDAARIKGVLRTLLDVLDRPRESR | soluble
12 | MKKLLFFLFTLVVLASGCGKKNTFTLEGSIKGLPSDTILVFYQEPDYKLDTILLSKGKFTYTITPDTFTIFSLLLGEKQILPIYADKGESVTLNGMVGKIEVKGKGENAQLAKHIQYLSTLENNKAAVMTAVDSLIKTNPSSYSNIYLIDKYYVQDSLPDYNHIDQLIKGLSGIIKDTPYIIELQNKLSEKKELTEHRYVSNISCTDKKGKTVNWNSVKGKYVLLDFWASWNKESIATQDSLVSVQKALKKDKFVIISLSLDLDKKEWMEKIIQRDTTQWKQVCDFKGWNNSIVKQQGITRIPANILIGPDKRVITQDIRGKELIDKVRQLTEQDKEKEKAAKEAERARKRQNKK | not soluble
13 | DSKDTRQFVKSIAKDAHRIGQDNDIYASVMIAQAILESDSGRSALAKSPNHNLFGIKGAFEGNSVPFNTLEADGNKLYSINAGFRKYPSTKESLKDYSDLIKNGIDGNRTIYKPTWKSEADSYKDATSHLSKTYATDPNYAKKLNSIIKHYQL | not soluble
14 | MPKSNRRIVRARDSKGRFLPGKKAKSVASKSRSRSRSRSVVSRKTTRTNSLTRRRSSTKAPSSARQSRSRSRSRSRSRSKSRSTSSRRSRSRSARRVSFKRGRPASFAMKSPEEKTAAKKTAAKIILRVD | not soluble
15 | MGSDKIHHHHHHMFDMFEKAVVFGLYSITPVHAGSGAELSVIDLPIQRERHTGFPVIWGQSLKGVLRSRFRQLELDEKIEVESQKWKWKEKTKEVLKEKADEFIKKVEERKRDPLLTEIVFGPATDGASEHAGAVSVGDAKILLFPVRSAKGVFAFVTSPIVIQRLKEDFELVSEIENDIELKQILSRFKVELSNNETIAGNALILNGENKVILEDIVLKVKSDSNVIENLVEVLKTLFGDNFFGKPIESIKERIAIVSDDVFKSFTRFSTEIVARVRIDAEKGTVARGGLWYEEFLPSDTLMYSLIAVGSPKKENLPKEVDNTQKIVNVLKVTFNNAFLQIGGDETVGKGFVKVRAGVLTGGHKGN | not soluble
16 | MPITPPLNIISPKLYPNEQWNESEALGAITWLWYQSPTHRQVPIVEMMTYILPVLKNGQFALFCKGTQPIGYISWAYFDEVAQAHYLESDRHLRDNSDWNCGDNIWLIQWFAPLGHSHQMRSAVRQLFPSTTVRALYHKGSDKGLRILTFKT | not soluble
17 | MGSDKIHHHHHHASTKVAKSKAKGKVIVYYVYGKRGHTGKYLWSKKTLTGKIGTTYHTKALDLLNDSGYMALASHSKNTSGKFTRKTTKVYYRYYDVIERDYEFKHEADLYMELTGDHRIGLFDRNLQDGVEVVVERTNFSKPYYDVSYSNRVDTGHGSGLKEFHYRFGSTHRFKDNRDGNIYTMALTNSGGITFHAVATKHSTMNELVQVSAHGKLLTAKIRK | not soluble
18 | MNQINIEIAYAFPERYYLKSFQVDEGITVQTAITQSGILSQFPEIDLSTNKIGIFSRPIKLTDVLKEGDRIEIYRPLLADPKEIRRKRAAEQAAAKDKEKGA | soluble
19 | MGHHHHHHSHMIVNVIGAGLAGSEVAYNLGKRGIRVRLFEMRPKKMTEVHKTGYFAELVCSNSLKSEDITNAEGLLKAEMRLMGSITLEAAEKARVPSGKALAVDRNIFAKEVTEVIERLESVEIIREEVTEFDPEEGIWVVATGPATSDGLLPFLKKLLGDDLLFFFDAVSPIVTFESIDMECAFWGDRFGKGKDYINCPLTKEEYEEFWKALVEAEVIEMEDFDRKLLFERCQPIEEIARSGKDALRYGPLRPTGLVDPRTGKEPYAVVQLRREDKEGRFYSLVGFQTRLKWSEQKRVLRKIPCLRNAEIVRYGVMHRNVYINSPKLLDIFFRLKKHPNIFFAGQITGVEGYMESAASGIYVAYNVHRILKGLSPLKLPEETMMGALFSYIIEKVEGDLKPMYANFGLLPPLKVRVKDKFEKRKKLAERAIETMKKFLEENPW | soluble
20 | MGHHHHHHSHMPKSQVKRQEVISELLVTEAAHVRMLRVLHDLFFQPMAECLFFPLEELQNIFPSLDELIEVHSLFLDRLMKRRQESGYLIEEIGDVLLARFDGAEGSWFQKISSRFCSRQSFALEQLKAKQRKDPRFCAFVQEAESRPRCRRLQLKDMIPTEMQRLTKYPLLLQSIGQNTEEPTEREKVELAAECCREILHHVNQAVRDMEDL | not soluble
